Series [1] deals with L-NLS-NUPR1phospho NLS (Homo sapiens) (UniProt O60356). Particulars: cited from earlier work.
The target of series [2] is L-NLS-NUPR1 NLS (Homo sapiens) (UniProt O60356). Particulars: cited from earlier work.
Series [3] deals with L-NLS-PADI NLS (Homo sapiens) (UniProt Q9UM07). Nature of the series: ITC. Particulars: cited from earlier work.
For series [4], the target named is L-NLS-NUPR1L NLS (Homo sapiens) (UniProt A6NF83). Put plainly: fluorescence. The settings on record: cited from earlier work.
For series [5], the target named is L-NLS-PADI NLS (Homo sapiens) (UniProt Q9UM07). Nature of the series: fluorescence. Particulars: cited from earlier work.
The nature of series [6]: Translational diffusion NMR (DOSY) of NLS peptides. Type of series: physicochemical. The settings on record: ~100 μM peptide. An excerpt:
For the four peptides, we measured the experimental value of D for dioxane ranging from (1.2 ± 0.1) × 10^−5 to (1.05 ± 0.02) × 10^−5 cm^2 s^−1 in each solution containing the corresponding peptide; we assumed a hydrodynamic radius of 2.12 Å for dioxane (Table 1) under any condition. […] Furthermore, the values of D were similar for the D- and L-peptides, and the latter were already being described as disordered. Thus, we can conclude that the four D-peptides were monomeric and disordered, like the L-form counterparts, and, then, there was no difference in the hydrodynamic properties of the peptides by changing the enantiomeric nature of the residues.
The NMR spectra were acquired at 10 °C on a Bruker Avance III spectrometer (Bruker GmbH, Mannheim, Germany), equipped with a triple-resonance probe and z-pulse field gradients. All NMR experiments with D-NLS peptides were carried out in 50 mM deuterated Tris buffer (not corrected for isotope effects), pH 7.2. Spectra were calibrated with TSP, by considering pH-dependent changes in its chemical shifts; probe temperature was calibrated with pure methanol.
The typical D-NLS peptide concentrations in DOSY experiments were ~100 μM, and 128 scans were acquired, in which the gradient strength was varied linearly in sixteen steps, between 2 and 95% of the total power of the gradient coil. Measurements of the translational self-diffusion coefficient, D, were performed with the pulsed-gradient spin-echo sequence in the presence of 100% D2O. Details on the experimental conditions and fitting of the resulting curves have been described elsewhere. Gradient strength was calibrated by using the value of D for the residual proton water signal in a sample containing 100% D2O, in a 5 mm tube [23]. Gradient length was 2.5 ms; the time between the two pulse gradients in the sequence was 250 ms; and the recovery delay between the bipolar gradients was 100 μs. The signals from methyl groups between 0.8 and 1.0 ppm were used for peak integration, for all the D-NLS peptides. A final concentration of 1% of dioxane, which was assumed to have a hydrodynamic radius Rh of 2.12 Å [23], was added to the solution of each peptide.

Series [7] deals with T1, Impα3 (Homo sapiens, UniProt O00629).
T1 construct: Human importin α3 isoform (residues 1–521); made in house
T1 sequence (O00629 1-521): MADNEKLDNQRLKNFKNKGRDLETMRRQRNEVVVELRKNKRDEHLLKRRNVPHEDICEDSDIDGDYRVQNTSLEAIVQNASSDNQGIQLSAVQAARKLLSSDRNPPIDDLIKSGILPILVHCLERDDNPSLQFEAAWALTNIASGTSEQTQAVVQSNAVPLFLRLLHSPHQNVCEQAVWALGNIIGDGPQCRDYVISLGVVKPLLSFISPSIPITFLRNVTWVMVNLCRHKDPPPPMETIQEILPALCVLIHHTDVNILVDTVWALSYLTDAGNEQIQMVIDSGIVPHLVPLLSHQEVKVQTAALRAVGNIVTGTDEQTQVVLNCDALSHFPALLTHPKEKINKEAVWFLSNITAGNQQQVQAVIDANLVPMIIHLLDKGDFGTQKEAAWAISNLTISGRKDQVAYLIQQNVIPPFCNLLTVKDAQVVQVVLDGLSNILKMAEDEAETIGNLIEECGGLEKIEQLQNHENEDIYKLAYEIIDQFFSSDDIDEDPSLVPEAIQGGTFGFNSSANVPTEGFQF
Nature of the series: Biolayer interferometry (BLI) binding to Impα3. Particulars: BLItz, Impα3 immobilized via His-tag (0.25 μM), peptide 1–10 μM, 10 × kinetics buffer, 25 °C, error from pseudo-first order fit, at least two repeats. The protocol: (§1) The association (kon) and dissociation (koff) rate constants of the binding of D-NLS peptides to either Impα3 or ∆Impα3 were determined by using a BLItz system (ForteBio, Pall, Barcelona, Spain). The buffer used in the experiments was that recommended by the manufacturer. […] The peptide concentrations were in a range from 1 to 10 μM during the association step. The general scheme of the protein association/dissociation reactions in the BLItz system for the D-NLS peptides was as follows: 30 s of initial baseline acquisition with the 10 × kinetics buffer (provided by the manufacturer); 120 s of loading either Impα3 and ∆Impα3 into the biosensor; 30 s of baseline acquisition with the 10 × kinetics buffer; 120 s of association of each peptide to the biosensor (which had been previously loaded with the importin species); and 120 s of monitoring of the dissociation of each peptide from the biosensor. All experiments were carried out at 25 °C.
(§2) Fittings of the BLI sensorgrams was carried out by using KaleidaGraph, as previously described. The interferometry response during the association step, R(t) (measured in response units, RU), and the binding rate, dR(t)/dt, could be used to evaluate the kinetics of the formation of the complex between Impα3/∆Impα3 and each D-NLS, according to:(2) dR/dt=konD-NLSRmax−Rt−koffR(t) where Rmax is proportional to the total concentration of biosensor-bound importin species; and [D-NLS] represents the concentration of the corresponding D-NLS peptide.
(§3) In Equation (2), R(t) is given by:(3) Rt= Req−Reqe^(−kobs t−t0) where Req is the steady-state (or equilibrium) response obtained at infinite time, when dR(t)/dt = 0, and t0 = 180 s is the time at which the association step between biosensor-immobilized Impα3/∆Impα3 and D-NLS in the solution started. We fitted the experimentally obtained R(t) under any condition as:(4) Rt= Req−Reqe^−kobs t−t0−R’eq(t−t0) where R^′eq was included to consider the lineal drift observed at longer times.
(§4) The dissociation process was always fitted to a single exponential, with R(t) given by:(6) Rt=R1 e^(−kofft−t0)−R^″eq(t−t0) where t0 = 300 is the time at which the dissociation of the D-NLS from the biosensor-bound Impα3/∆Impα3 started in our experimental set-up, R1 is the response level when dissociation starts, and the parameter R^″eq considers the linear drift observed at longer times.
(§5) The experiments were repeated at least twice for each peptide with each importin species.
For orientation: Biolayer interferometry detects binding as a change in optical thickness at a sensor tip.

The target in series [8] is T2, ∆Impα3 (Homo sapiens, UniProt O00629).
T2 construct: IBB-depleted species of Impα3 (residues 64–521 of the intact protein); made in house
T2 sequence (O00629 64-521): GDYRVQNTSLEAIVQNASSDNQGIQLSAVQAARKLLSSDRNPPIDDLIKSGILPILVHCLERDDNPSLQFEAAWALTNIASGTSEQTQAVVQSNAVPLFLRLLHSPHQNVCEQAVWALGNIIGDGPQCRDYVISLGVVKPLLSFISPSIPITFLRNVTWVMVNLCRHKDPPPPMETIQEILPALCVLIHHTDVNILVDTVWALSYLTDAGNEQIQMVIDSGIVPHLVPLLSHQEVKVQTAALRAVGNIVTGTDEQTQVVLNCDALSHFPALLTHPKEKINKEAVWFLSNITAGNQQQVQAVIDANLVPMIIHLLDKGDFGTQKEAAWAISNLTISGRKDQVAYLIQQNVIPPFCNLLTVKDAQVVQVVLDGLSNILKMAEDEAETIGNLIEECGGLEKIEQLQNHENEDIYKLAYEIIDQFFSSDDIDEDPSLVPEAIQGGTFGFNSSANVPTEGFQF
Put plainly: Biolayer interferometry (BLI) binding to ∆Impα3. Particulars: BLItz, ∆Impα3 immobilized via His-tag (0.25 μM), peptide 1–10 μM, 10 × kinetics buffer, 25 °C, error from pseudo-first order fit, at least two repeats. The method, then: as §1, §2, §3, §4, §5

Series [9] deals with L-NLS-NUPR1 (Homo sapiens) (UniProt O60356). Put plainly: ITC. Particulars: cited from earlier work.
The target of series [10] is L-NLS-NUPR1phospho (Homo sapiens) (UniProt O60356). Nature of the series: ITC. Particulars: cited from earlier work.
The target in series [11] is L-NLS-PADI (NLS2-PADI4) (Homo sapiens) (UniProt Q9UM07). Nature of the series: ITC. Particulars: cited from earlier work.
Series [12] concerns the target L-NLS-NUPR1L (Homo sapiens) (UniProt A6NF83). Put plainly: fluorescence. The settings on record: cited from earlier work.
In series [13] the target is L-NLS-PADI (NLS2-PADI4) (Homo sapiens) (UniProt Q9UM07). Nature of the series: fluorescence. Particulars: cited from earlier work.
Series [14] addresses L-NLS-NUPR1phospho NLS (Homo sapiens) (UniProt O60356). The settings on record: cited from earlier work. This is another data set of the same source.
Series [15] deals with L-NLS-NUPR1 NLS (Homo sapiens) (UniProt O60356). The settings on record: cited from earlier work. The source holds these as a separate data set.
For series [16], the target named is L-NLS-NUPR1L NLS (Homo sapiens) (UniProt A6NF83). Nature of the series: ITC. Particulars: cited from earlier work.
For series [17], the target named is L-NLS-NUPR1L (Homo sapiens) (UniProt A6NF83). Put plainly: ITC. Particulars: cited from earlier work.

Read-outs that look alike come from different tables or passages of the source.

L-NLS-PADI (NLS2-PADI4) (Homo sapiens), sequence (Q9UM07 498-526): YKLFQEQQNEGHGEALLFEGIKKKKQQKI
L-NLS-NUPR1L NLS (Homo sapiens), sequence (A6NF83 60-80): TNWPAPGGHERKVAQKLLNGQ
L-NLS-NUPR1 (Homo sapiens), sequence (O60356 54-74): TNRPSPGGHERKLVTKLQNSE
L-NLS-NUPR1L (Homo sapiens), sequence (A6NF83 51-74): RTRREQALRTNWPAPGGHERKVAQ

In general, Kd refers to the concentration at which binding is half-saturated. With Importin α3 (from UniProt O00629), the dissociation constant Kd was 27 µM in series [1]; 1.7 µM in series [2]; 23 µM in [3]; 3 µM in series [4]; 4 µM in [5].
In general, kon refers to a measure of how fast the partners come together. A lower kon goes with slow association. For the substance “YT^54NRPSPGGHERKLVTKLQNSE^74 [D-NLS-NUPR1, D-enantiomeric, isolated NLS region of NUPR1 (residues 54–74 of the intact protein)]”, in series [6] (D-peptides, by comparison with D of dioxane (1%, Rh 2.12 Å), 50 mM deuterated Tris pH 7.2, 10 °C), the “Hydrodynamic radius Rh” value worked out at 9 ± 1 Å. Besides, the “Diffusion coefficient D” value in series [6] (50 mM deuterated Tris pH 7.2, 100% D2O, 10 °C) was 1.78 ± 0.08 cm^2 s^−1 × 10^6. Further, the association rate constant (kon) is 50000 ± 10000 M⁻¹ s⁻¹ in [7] and 110000 ± 20000 M⁻¹ s⁻¹ in [8].
As for “importin α3 (Impα3) 1-521 (from UniProt O00629)”, the Kd in series [9] was 1.7 µM; in series [10] it was 27 µM; in series [11] it was 23 µM; in series [12], 3 µM; in series [13], 4 µM.
As to “∆Importin α3 IBB-deleted (from UniProt O00629)”, the Kd in [14] was 29 µM; in series [15], 0.95 µM; in [16] it was 5.5 µM; in [3], 4.37 µM; in [5] it was 4 µM.
Consider ∆Impα3 64-521 (from UniProt O00629), for which the Kd in series [9] is 0.95 µM; in series [17], 5.5 µM; in series [10], 29 µM; in series [11], 4.37 µM; in [13] it was 4 µM.
